This note sets out measurements from patent US6025158A, “Nucleic acids encoding humanized anti-IL-8 monoclonal antibodies” (Genentech, Inc., dated 2000).

The test system of one test is human monomeric IL-8. Briefly: human monomeric IL-8 mediated neutrophil chemotaxis. The format is cell-based. On the procedure:
Human neutrophils were isolated, counted and resuspended at 5×10^6 cells/ml in Hank's balanced salt solution (abbreviated HBSS; without calcium and magnesium) with 0.1% bovine serum albumin. The neutrophils were labeled by adding calcein AM (Molecular Probe, Eugene, Oreg.) at a final concentration of 2.0 μM. Following a 30 minute incubation at 37° C., cells were washed twice with HBSS-BSA and resuspended at 5×10^6 cells/ml.
Chemotaxis experiments were carried out in a Neuro Probe (Cabin John, Md.) 96-well chamber, model MBB96. Experimental samples (buffer only control, IL-8 alone or IL-8+Fabs) were loaded in a Polyfiltronics 96-well View plate (Neuro Probe Inc.) placed in the lower chamber. […]
The relative number of neutrophils migrating through the filter (Neutrophil migration index) was determined by measuring fluorescence intensity of the filter and the fluorescence intensity of the contents of the lower chamber and adding the two values together. Fluorescence intensity was measured with a CytoFluor 2300 fluorescent plate reader (Millipore Corp. Bedford, Mass.) configured to read a Corning 96-well plate using the 485-20 nm excitation filter and a 530-25 emission filter, with the sensitivity set at 3.

In another test the target is IL-8 (Homo sapiens, UniProt P10145). Nature of the test: KinEXA equilibrium and kinetic measurements. The class given is binding. As to conditions: read-out: equilibrium constant (Kd). As to the method: The beads were resuspended in assay buffer (0.1% bovine serum albumin in PBS) to a final volume of 30 ml.
Chain of IL-8 (P10145 28-99 limits assumed): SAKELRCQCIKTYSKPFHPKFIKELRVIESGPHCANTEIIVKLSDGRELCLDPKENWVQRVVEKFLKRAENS
The equilibrium constant (Kd) was calculated using the software provided by Sapidyne Instruments Inc.

B1: F(ab)-9: humanized variant, F(ab)-6 with GluH6Gln (protein)
light: DIQMTQSPSSLSASVGDRVTITCRSSQSLVHGIGNTYLHWYQQKPGKAPKLLIYKVSNRFSGVPSRFSGSGSGTDFTLTISSLQPEDFATYYCSQSTHVPLTFGQGTKVEIKRTVAAPSVFIFPPSDEQLKSGTASVVCLLNNFYPREAKVQWKVDNALQSGNSQESVTEQDSKDSTYSLSSTLTLSKADYEKHKVYACEVTHQGLSSPVTKSFNRGEC
heavy: EVQLVQSGGGLVQPGGSLRLSCAASGYSFSSHYMHWVRQAPGKGLEWVGYIDPSNGETTYNQKFKGRFTLSRDNSKNTAYLQMNSLRAEDTAVYYCARGDYRYNGDWFFDVWGQGTLVTVSSASTKGPSVFPLAPSSKSTSGGTAALGCLVKDYFPEPVTVSWNSGALTSGVHTFPAVLQSSGLYSLSSVVTVPSSSLGTQTYICNVNHKPSNTKVDKKVEPKSCDKTHT
With B1, the IC50 in the test on human monomeric IL-8 is around 15 nM.

B2: 6G4V11N35E IgG1: full length IgG1 version of humanized anti-IL8 variant 6G4V11N35E (protein)
light: DIQMTQSPSSLSASVGDRVTITCRSSQSLVHGIGETYLHWYQQKPGKAPKLLIYKVSNRFSGVPSRFSGSGSGTDFTLTISSLQPEDFATYYCSQSTHVPLTFGQGTKVEIKRTVAAPSVFIFPPSDEQLKSGTASVVCLLNNFYPREAKVQWKVDNALQSGNSQESVTEQDSKDSTYSLSSTLTLSKADYEKHKVYACEVTHQGLSSPVTKSFNRGEC
heavy: EVQLVQSGGGLVQPGGSLRLSCAASGYSFSSHYMHWVRQAPGKGLEWVGYIDPSNGETTYNQKFKGRFTLSRDNSKNTAYLQMNSLRAEDTAVYYCARGDYRYNGDWFFDVWGQGTLVTVSSASTKGPSVFPLAPSSKSTSGGTAALGCLVKDYFPEPVTVSWNSGALTSGVHTFPAVLQSSGLYSLSSVVTVPSSSLGTQTYICNVNHKPSNTKVDKKVEPKSCDKTHT
As to B2, in the test with IL-8, the Kd was around 0.049 nM.

For orientation: IC50 means the midpoint of a concentration-inhibition curve. Read a high IC50 as weaker potency in that assay. The term Kd denotes the constant that tells how readily two partners part at equilibrium.
